From patent publication US20150037339A1 (Regeneron, published 2015)

T1: Activin A (human, UniProt P08476 311-426)
T1 construct: Homodimer of two βA subunits; bought from R&D Systems (#338-AC); also called inhibin-βA dimer; human Activin A
T1 sequence: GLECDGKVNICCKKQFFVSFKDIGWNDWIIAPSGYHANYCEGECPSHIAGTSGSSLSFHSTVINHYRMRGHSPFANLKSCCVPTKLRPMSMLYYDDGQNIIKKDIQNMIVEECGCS

T2: Activin A (homodimer of two inhibin βA subunits; R&D Systems, #338-AC) (human, UniProt P08476 311-426)
T2 construct: Bought protein; also called inhibin-βA dimer
T2 sequence: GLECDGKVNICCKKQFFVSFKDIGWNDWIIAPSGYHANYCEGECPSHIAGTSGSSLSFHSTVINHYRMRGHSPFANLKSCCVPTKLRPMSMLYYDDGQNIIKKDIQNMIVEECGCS


Legend:
Activin A [1] = target: T1, Activin A; experiment: SPR, captured mAb, 25C; no dissociation observed, kd fixed
Protocol: (§1) Antibody-antigen association was monitored for 240 seconds while dissociation in buffer was monitored for 600 seconds. Kinetic association and dissociation rate constants were determined by processing and fitting the data using Scrubber software version 2.0c. Binding equilibrium dissociation constants (KD) and dissociative half-lives (t_{1/2}) were then calculated from the kinetic rate constants as: KD (M)=kd/kₐ and t_{1/2} (min)=[ln 2/(60*kd)]. (NB=no binding observed under the conditions used; NT=not tested).

Activin A [2] = target: T1, Activin A; experiment: SPR, captured mAb, 37C
Protocol: as §1

Activin A [3] = target: T1, Activin A; experiment: SPR, captured mAb, 37C; no dissociation observed, kd fixed
Protocol: as §1

Activin A [4] = target: T1, Activin A; experiment: SPR, captured mAb, 25C
Protocol: as §1

[5] = target: T2, Activin A (homodimer of two inhibin βA …); experiment: SPR blocking: 5 nM Activin A + 1.88 nM binder over Follistatin-288 surface
Protocol: (§2) The binding signal (RU) was measured at 150 seconds after the start of the injection, and this signal was subtracted by the measured RU value for a negative control reference surface to determine the specific binding signal.

[6] = target: T2, Activin A (homodimer of two inhibin βA …); experiment: SPR blocking: 5 nM Activin A + 1.88 nM binder over hActRIIA-hFc surface
Protocol: as §2

[7] = target: T2, Activin A (homodimer of two inhibin βA …); experiment: SPR blocking: 5 nM Activin A + 7.50 nM binder over hActRIIA-hFc surface
Protocol: as §2

[8] = target: T2, Activin A (homodimer of two inhibin βA …); experiment: SPR blocking: 5 nM Activin A + 1.88 nM binder over hActRIIB-hFc (Control 4) surface
Protocol: as §2

[9] = target: T2, Activin A (homodimer of two inhibin βA …); experiment: SPR blocking: 5 nM Activin A + 60 nM binder over hActRIIB-hFc (Control 4) surface
Protocol: as §2

[10] = target: T2, Activin A (homodimer of two inhibin βA …); experiment: SPR blocking: 5 nM Activin A + 3.75 nM binder over hActRIIB-hFc (Control 4) surface
Protocol: as §2

[11] = target: T2, Activin A (homodimer of two inhibin βA …); experiment: SPR blocking: 5 nM Activin A + 15 nM binder over hActRIIB-hFc (Control 4) surface
[12] = target: T2, Activin A (homodimer of two inhibin βA …); experiment: SPR blocking: 5 nM Activin A + 30 nM binder over hActRIIA-hFc surface
Protocol: as §2

[13] = target: T2, Activin A (homodimer of two inhibin βA …); experiment: SPR blocking: 5 nM Activin A + 15 nM binder over Follistatin-288 surface
Protocol: as §2

[14] = target: T2, Activin A (homodimer of two inhibin βA …); experiment: SPR blocking: 5 nM Activin A + 7.50 nM binder over hActRIIB-hFc (Control 4) surface
[15] = target: T2, Activin A (homodimer of two inhibin βA …); experiment: SPR blocking: 5 nM Activin A + 60 nM binder over hActRIIA-hFc surface
Protocol: as §2

[16] = target: T2, Activin A (homodimer of two inhibin βA …); experiment: SPR blocking: 5 nM Activin A + 30 nM binder over hActRIIB-hFc (Control 4) surface
Protocol: as §2

[17] = target: T2, Activin A (homodimer of two inhibin βA …); experiment: SPR blocking: 5 nM Activin A + 0.94 nM binder over hActRIIB-hFc (Control 4) surface
[18] = target: T2, Activin A (homodimer of two inhibin βA …); experiment: SPR blocking: 5 nM Activin A + 0 nM binder over Follistatin-288 surface
Protocol: as §2

[19] = target: T2, Activin A (homodimer of two inhibin βA …); experiment: SPR blocking: 5 nM Activin A + 0.94 nM binder over Follistatin-288 surface
Protocol: as §2

[20] = target: T2, Activin A (homodimer of two inhibin βA …); experiment: SPR blocking: 5 nM Activin A + 0.00 nM binder over hActRIIB-hFc (Control 4) surface
Protocol: as §2

[21] = target: T2, Activin A (homodimer of two inhibin βA …); experiment: SPR blocking: 5 nM Activin A + 15 nM binder over hActRIIA-hFc surface
Protocol: as §2

[22] = target: T2, Activin A (homodimer of two inhibin βA …); experiment: SPR blocking: 5 nM Activin A + 3.75 nM binder over Follistatin-288 surface
Protocol: as §2

[23] = target: T2, Activin A (homodimer of two inhibin βA …); experiment: SPR blocking: 5 nM Activin A + 3.75 nM binder over hActRIIA-hFc surface
Protocol: as §2

[24] = target: T2, Activin A (homodimer of two inhibin βA …); experiment: SPR blocking: 5 nM Activin A + 7.5 nM binder over Follistatin-288 surface
Protocol: as §2

[25] = target: T2, Activin A (homodimer of two inhibin βA …); experiment: SPR blocking: 5 nM Activin A + 0.00 nM binder over hActRIIA-hFc surface
Protocol: as §2

[26] = target: T2, Activin A (homodimer of two inhibin βA …); experiment: SPR blocking: 5 nM Activin A + 60 nM binder over Follistatin-288 surface
Protocol: as §2

[27] = target: T2, Activin A (homodimer of two inhibin βA …); experiment: SPR blocking: 5 nM Activin A + 30 nM binder over Follistatin-288 surface
Protocol: as §2

[28] = target: T2, Activin A (homodimer of two inhibin βA …); experiment: SPR blocking: 5 nM Activin A + 0.94 nM binder over hActRIIA-hFc surface
Protocol: as §2

% bound RU w/no inhibitor [5] [%]	% bound RU w/no inhibitor [6] [%]	% bound RU w/no inhibitor [7] [%]	% bound RU w/no inhibitor [8] [%]	% bound RU w/no inhibitor [9] [%]	% bound RU w/no inhibitor [10] [%]	% bound RU w/no inhibitor [11] [%]	% bound RU w/no inhibitor [12] [%]	% bound RU w/no inhibitor [13] [%]	% bound RU w/no inhibitor [14] [%]	% bound RU w/no inhibitor [15] [%]	% bound RU w/no inhibitor [16] [%]	% bound RU w/no inhibitor [17] [%]	% bound RU w/no inhibitor [18] [%]	% bound RU w/no inhibitor [19] [%]	% bound RU w/no inhibitor [20] [%]	% bound RU w/no inhibitor [21] [%]	% bound RU w/no inhibitor [22] [%]	% bound RU w/no inhibitor [23] [%]	% bound RU w/no inhibitor [24] [%]	Binder	further results
																				H4H10448P2 (antibody, human IgG4, V domains shown) VH: QVQLQESGPGLVKPSETLSLTCTVSGGTFSSHFWSWIRQPPGKGLEWIGYIFYTGGTNHNPSLKSRVTISIDTSKNQFSLKLTSVTAADTAVYYCARARSGITFGGVIVPGSFDIWGQGTMVTVSS VL: not shown	koff (Activin A [1]): ≤ 5e-05 s⁻¹; Activin A-20 nM (RU) (Activin A [2]): 49 RU; Kd (Activin A [2]): ≤ 6.36 pM; kon (Activin A [2]): 7.86e+06 M⁻¹ s⁻¹; t1/2 (Activin A [2]): ≥ 3.85 h; koff (Activin A [3]): ≤ 5e-05 s⁻¹; Activin A-20 nM (RU) (Activin A [4]): 64 RU; Kd (Activin A [4]): ≤ 10.5 pM; kon (Activin A [4]): 4.76e+06 M⁻¹ s⁻¹; t1/2 (Activin A [4]): ≥ 3.85 h
																				H4H10452P2 (antibody, human IgG4, V domains shown) VH: QVQLQESGPGLVKPSETLSLTCTVSGGSFSSHFWNWIRQSPGRGLEWIGYIYYSGGTNYNPSFKSRVTMSVDTSKNQFSLKLSSVTAADTAVFYCARARSGITFGGVLVPGSFDIWGQGTMVTVSS VL: not shown	koff (Activin A [1]): ≤ 5e-05 s⁻¹; Activin A-20 nM (RU) (Activin A [2]): 43 RU; Kd (Activin A [2]): ≤ 6.3 pM; kon (Activin A [2]): 7.94e+06 M⁻¹ s⁻¹; t1/2 (Activin A [2]): ≥ 3.85 h; koff (Activin A [3]): ≤ 5e-05 s⁻¹; Activin A-20 nM (RU) (Activin A [4]): 55 RU; Kd (Activin A [4]): ≤ 10.7 pM; kon (Activin A [4]): 4.69e+06 M⁻¹ s⁻¹; t1/2 (Activin A [4]): ≥ 3.85 h
59	62	3	62	3	20	3	2	1	4	2	3	80	100	79	100	2	15	19	1	H4H10430P (antibody, human IgG4, V domains shown, H4H prefix means human IgG4 Fc) VH: EVQLVESGGGLVQPGRSLRLSCKASGFAFDDFAMHWVRQAPGKGLEWVSGIVWNSGDIGYADSVKGRFTISRDNAKNSLYLQLNSLRTEDTALYFCVKDMVRGLMGFNYYGMDVWGQGTTVTVSS VL: EIVLTQSPATLSLSPGERATLSCRASQTISTYLVWYRQRPGQAPSLLIYDASNRATDIPARFSGSGSGTDFTLTISSLEPEDFAVYYCQQRSNWPITFGQGTRLEIK	% bound RU w/no inhibitor [25]: 100%; % bound RU w/no inhibitor [26]: 1%; % bound RU w/no inhibitor [27]: 1%; % bound RU w/no inhibitor [28]: 81%
46	114	105	106	124	88	115	117	3	103	118	122	110	100	73	100	113	6	95	3	H4H10442P2 (antibody, human IgG4, V domains shown, H4H prefix means human IgG4 Fc) VH: QVQLQESGPGLVKPSETLSITCTVSGGSFSSHFWTWIRQPPGKGLEWIGYLHYSGGTSYNPSLKSRVIISVDTSKNQFSLKLNSVTAADTAVYYCARARSGITFGGLIVPGSFDIWGQGTMVTVSS VL: not shown	% bound RU w/no inhibitor [25]: 100%; % bound RU w/no inhibitor [26]: 3%; % bound RU w/no inhibitor [27]: 3%; % bound RU w/no inhibitor [28]: 114%
54	115	94	105	129	76	115	98	3	95	118	89	107	100	77	100	108	7	85	3	H4H10446P2 (antibody, human IgG4, V domains shown, H4H prefix means human IgG4 Fc) VH: QVQLQESGPGLVKPSETLSLTCTVSGGSFSSHFWSWIRQPPGKGLEWIGYILYTGGTSFNPSLKSRVSMSVGTSKNQFSLKLSSVTAADTAVYYCARARSGITFTGIIVPGSFDIWGQGTMVTVSS VL: not shown	% bound RU w/no inhibitor [25]: 100%; % bound RU w/no inhibitor [26]: 3%; % bound RU w/no inhibitor [27]: 3%; % bound RU w/no inhibitor [28]: 111%
